# Laboratory results taken from US20190010228A1 (Genentech, published 2019).
# T1: human LRP5 domains E3-E4 (E644-Q1263 of SEQ ID NO: 42) (human, UniProt O75197 644-1263)
# T1 construct: Soluble fragment made in-house; It was biotinylated for phage sorting; also called LRP5-E3/E4; LRP5E3/E4
# T1 sequence: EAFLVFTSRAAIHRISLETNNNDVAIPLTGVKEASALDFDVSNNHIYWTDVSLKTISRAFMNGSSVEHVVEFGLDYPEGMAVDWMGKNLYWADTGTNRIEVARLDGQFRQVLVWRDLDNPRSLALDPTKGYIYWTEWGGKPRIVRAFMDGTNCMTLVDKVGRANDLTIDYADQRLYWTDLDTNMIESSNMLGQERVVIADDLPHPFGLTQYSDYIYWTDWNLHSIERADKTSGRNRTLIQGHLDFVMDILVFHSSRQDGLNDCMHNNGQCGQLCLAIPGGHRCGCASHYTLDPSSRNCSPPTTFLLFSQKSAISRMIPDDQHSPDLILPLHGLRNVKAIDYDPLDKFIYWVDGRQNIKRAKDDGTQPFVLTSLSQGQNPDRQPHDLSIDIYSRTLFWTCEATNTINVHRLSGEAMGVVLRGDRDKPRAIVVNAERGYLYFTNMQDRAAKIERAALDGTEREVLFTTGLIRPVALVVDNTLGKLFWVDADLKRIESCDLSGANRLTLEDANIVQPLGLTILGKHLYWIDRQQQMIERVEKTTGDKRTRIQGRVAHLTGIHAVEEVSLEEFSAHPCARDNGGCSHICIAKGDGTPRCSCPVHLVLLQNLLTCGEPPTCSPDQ
# Target: LRP5 (transfected into reporter cells)
# Assay: cell-based or functional assay
"TOPFlash luciferase reporter, recombinant Norrin (cells transfected with LRP5 and FZD-4) [fold]","TOPFlash luciferase reporter, Norrin as ligand (cells transfected with LRP5 and FZD-4) [fold]","TOPFlash luciferase reporter, Wnt7b as ligand (cells transfected with LRP5 and FZD-4) [fold]",Binder
> 2,,,"YW629.51 (antibody, human IgG1, V domains shown, also called P6C.51; bivalent LRP5 antibody (P6C.51)) VH: EVQLVESGGGLVQPGGSLRLSCAASGFTFSSYAMHWVRQAPGKGLEWVSRISSNGGSTYYADSVKGRFTISRDNSKNTLYLQMNSLRAEDTAVYYCARWIPQSYPFASYKSGFDYWGQGTLVTVSS VL: DIQMTQSPSSLSASVGDRVTITCRASQGISSYLAWYQQKPGKAPKLLIYDASSLESGVPSRFSGSGSGTDFTLTISSLQPEDFATYYCQQYYSYPFTFGQGTKVEIKR"
,3,2,"YW629.51.61 (antibody, human IgG1, V domains shown, also called P6C.51.61; PC6.51.61) VH: EVQLVESGGGLVQPGGSLRLSCAASGFTFSSYAMHWVRQAPGKGLEWVSRISSNGGSTYYADSVKGRFTISRDNSKNTLYLQMNSLRAEDTAVYYCARWIPQSYPFASYKSGFDYWGQGTLVTVSS VL: DIQMTQSPSSLSASVGDRVTITCRASQVMGYYLAWYQQKPGKAPKLLIYDASSLESGVPSRFSGSGSGTDFTLTISSLQPEDFATYYCQQYYSYPFTFGQGTKVEIKR"

# Target: T1, human LRP5 domains E3-E4 (E644-Q1263 of …)
# Assay: SPR, BIAcore T100, IgG captured by anti-human Fc, LRP5E3/E4 as analyte, 25 C
# Protocol: Binding affinities of anti-LRP5E3/E4 IgGs were measured by Surface Plasmon Resonance (SPR) using a BIAcore™-T100 instrument. Anti-LRP5E3/E4 human IgGs were captured by mouse anti-human Fc antibody (GE Healthcare, cat# BR-1008-39) coated on CM5 biosensor chips to achieve approximately 200 response units (RU). For kinetics measurements, two-fold serial dilutions ([…]) of human LRP5E3/E4 (GNE) were injected in HBS-P buffer (10 mM HEPES, pH 7.4, 0.15 M NaCl, 0.005% surfactant P20) at 25° C. with a flow rate of 30 μl/min. Association rates (kₒₙ) and dissociation rates (koff) were calculated using a simple one-to-one Langmuir binding model (BIAcore Evaluation Software version 2.0.2). The equilibrium dissociation constant (KD) was calculated as the ratio koff/kₒₙ.
Kd [nM],koff [s⁻¹],kon [M⁻¹ s⁻¹],Binder
0.268,0.000104,387000,"YW629.51.80 (antibody, human IgG1, V domains shown, also called P6C.51.80) VH: EVQLVESGGGLVQPGGSLRLSCAASGFTFSSYAMHWVRQAPGKGLEWVSRISSNGGSTYYADSVKGRFTISRDNSKNTLYLQMNSLRAEDTAVYYCARWIPQSYPFASYKSGFDYWGQGTLVTVSS VL: DIQMTQSPSSLSASVGDRVTITCRASQAIYSYLAWYQQKPGKAPKLLIYDASSLESGVPSRFSGSGSGTDFTLTISSLQPEDFATYYCQQYYSYPFTFGQGTKVEIKR"
0.47,0.000115,244000,"YW629.51.61 (antibody, human IgG1, V domains shown, also called P6C.51.61; PC6.51.61) VH: EVQLVESGGGLVQPGGSLRLSCAASGFTFSSYAMHWVRQAPGKGLEWVSRISSNGGSTYYADSVKGRFTISRDNSKNTLYLQMNSLRAEDTAVYYCARWIPQSYPFASYKSGFDYWGQGTLVTVSS VL: DIQMTQSPSSLSASVGDRVTITCRASQVMGYYLAWYQQKPGKAPKLLIYDASSLESGVPSRFSGSGSGTDFTLTISSLQPEDFATYYCQQYYSYPFTFGQGTKVEIKR"
0.438,0.000165,376000,"YW629.51.77 (antibody, human IgG1, V domains shown, also called P6C.51.77) VH: EVQLVESGGGLVQPGGSLRLSCAASGFTFSSYAMHWVRQAPGKGLEWVSRISSNGGSTYYADSVKGRFTISRDNSKNTLYLQMNSLRAEDTAVYYCARWIPQSYPFASYKSGFDYWGQGTLVTVSS VL: DIQMTQSPSSLSASVGDRVTITCRASQVIYGYLAWYQQKPGKAPKLLIYDASTRESGVPSRFSGSGSGTDFTLTISSLQPEDFATYYCQQYYSYPFTFGQGTKVEIKR"
0.592,0.000199,337000,"YW629.51.63 (antibody, human IgG1, V domains shown, also called P6C.51.63) VH: EVQLVESGGGLVQPGGSLRLSCAASGFTFSSYAMHWVRQAPGKGLEWVSRISSNGGSTYYADSVKGRFTISRDNSKNTLYLQMNSLRAEDTAVYYCARWIPQSYPFASYKSGFDYWGQGTLVTVSS VL: DIQMTQSPSSLSASVGDRVTITCRASQSIYYYLAWYQQKPGKAPKLLIYDASSLESGVPSRFSGSGSGTDFTLTISSLQPEDFATYYCQQYYSYPFTFGQGTKVEIKR"
0.192,7.24e-05,378000,"YW629.51.78 (antibody, human IgG1, V domains shown, also called P6C.51.78) VH: EVQLVESGGGLVQPGGSLRLSCAASGFTFSSYAMHWVRQAPGKGLEWVSRISSNGGSTYYADSVKGRFTISRDNSKNTLYLQMNSLRAEDTAVYYCARWIPQSYPFASYKSGFDYWGQGTLVTVSS VL: DIQMTQSPSSLSASVGDRVTITCRASQGIFYYLAWYQQKPGKAPKLLIYDASTLESGVPSRFSGSGSGTDFTLTISSLQPEDFATYYCQQYYSYPFTFGQGTKVEIKR"
1.13,0.000369,327000,"YW629.51.13 (antibody, human IgG1, V domains shown, also called P6C.51.13) VH: EVQLVESGGGLVQPGGSLRLSCAASGFTFSSYAMHWVRQAPGKGLEWVSRISSNGGSTYYADSVKGRFTISRDNSKNTLYLQMNSLRAEDTAVYYCARWIPQSYPFRSYKSGFDYWGQGTLVTVSS VL: DIQMTQSPSSLSASVGDRVTITCRASQGISSYLAWYQQKPGKAPKLLIYDASSLESGVPSRFSGSGSGTDFTLTISSLQPEDFATYYCQQYYSYPFTFGQGTKVEIKR"

# The remaining lines, values behind:
Binder,Kd [nM],koff [s⁻¹],kon [M⁻¹ s⁻¹]
"YW629.51 (antibody, human IgG1, V domains shown, also called P6C.51; bivalent LRP5 antibody (P6C.51)) VH: EVQLVESGGGLVQPGGSLRLSCAASGFTFSSYAMHWVRQAPGKGLEWVSRISSNGGSTYYADSVKGRFTISRDNSKNTLYLQMNSLRAEDTAVYYCARWIPQSYPFASYKSGFDYWGQGTLVTVSS VL: DIQMTQSPSSLSASVGDRVTITCRASQGISSYLAWYQQKPGKAPKLLIYDASSLESGVPSRFSGSGSGTDFTLTISSLQPEDFATYYCQQYYSYPFTFGQGTKVEIKR",13,0.00309,237000
"YW629.42 (antibody, human IgG1, V domains shown, also called P6C.42) VH: EVQLVESGGGLVQPGGSLRLSCAASGFTFSSYAMSWVRQAPGKGLEWVGAISSSGSSTYYADSVKGRFTISRDNSKNTLYLQMNSLRAEDTAVYYCARYYRYAPYRSLGMDVWGQGTLVTVSS VL: DIQMTQSPSSLSASVGDRVTITCRASQGISSYLAWYQQKPGKAPKLLIYAASSLQSGVPSRFSGSGSGTDFTLTISSLQPEDFATYYCQQYYSYPFTFGQGTKVEIKR",51.6,0.00116,22600
"YW629.42.65 (antibody, human IgG1, V domains shown, also called P6C.42.65) VH: EVQLVESGGGLVQPGGSLRLSCAASGFTFSSYAMSWVRQAPGKGLEWVGGISSPGSSTYYADSVKGRFTISRDNSKNTLYLQMNSLRAEDTAVYYCARYYRYAPYRSLGMDVWGQGTLVTVSS VL: DIQMTQSPSSLSASVGDRVTITCRASQGISSYLAWYQQKPGKAPKLLIYAASSLQSGVPSRFSGSGSGTDFTLTISSLQPEDFATYYCQQYYLYPFTFGQGTKVEIKR",2.54,9.63e-05,37900
"YW629.42.57 (antibody, human IgG1, V domains shown, also called P6C.42.57) VH: EVQLVESGGGLVQPGGSLRLSCAASGFTFSSYAMSWVRQAPGKGLEWVGAISAPGSSTYYADSVKGRFTISRDNSKNTLYLQMNSLRAEDTAVYYCARYYRYAPYRSLGMDVWGQGTLVTVSS VL: DIQMTQSPSSLSASVGDRVTITCRASQGISSYLAWYQQKPGKAPKLLIYAASSLQSGVPSRFSGSGSGTDFTLTISSLQPEDFATYYCQQYYSYPFTFGQGTKVEIKR",5.42,0.000163,30100
"YW629.42.58 (antibody, human IgG1, V domains shown, also called P6C.42.58) VH: EVQLVESGGGLVQPGGSLRLSCAASGFTFSSYAMSWVRQAPGKGLEWVGAISSPGWSTYYADSVKGRFTISRDNSKNTLYLQMNSLRAEDTAVYYCARYYRYAPYRSLGMDVWGQGTLVTVSS VL: DIQMTQSPSSLSASVGDRVTITCRASQGISSYLAWYQQKPGKAPKLLIYAASSLQSGVPSRFSGSGSGTDFTLTISSLQPEDFATYYCQQYYSYPFTFGQGTKVEIKR",2.78,8.69e-05,31300
